± gives the standard deviation of the averaged measurements.
Tested on: ATP
Assay: switch fluorescence ratio, 500 uM ATP over buffer (Cy3 cluster intensity, sum of 5 cycles each) (fold (ratio)); higher = stronger signal-on switching upon ATP binding; sequences stand for … in TCGTCGGCAGCGTCAGATGTGTATAAGAGACAGTTTTTTTTTTTTTTTTTTTTTTTTT…TC
Conditions: aptamer strand: ATP DNA aptamer (quencher-CACCTGGGGGAGTATTGCGGAGGAAGG + anchor), 100 nM annealed; ATP concentration: 500 uM
Summary of the method: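 Values give the fluorescence ratio for each switch-domain sequence, averaged from per-cluster ratios of summed target-cycle to summed buffer-cycle Cy3 intensity. The Cy3-labelled switching-strand clusters sat on a modified Illumina MiSeq flow-cell, were annealed to 100 nM quencher-labelled ATP aptamer, and were imaged in selection buffer, then after 15 min with 500 uM ATP at 22 °C. Five cycles ran with NaOH stripping and re-annealing between them, and clusters outside 100-1000 RFU were excluded.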
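Also: ATP exposure 15 min at 22 °C before imaging.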

| Sequence | switch fluorescence ratio |
| --- | --- |
| TATATGGAGG | 0.956 ± 0.032 |
| TATATGTAGA | 1.03 ± 0.011 |
| TATATGTGTG | 0.9661 ± 0.0073 |
| TATATTATTA | 0.985 ± 0.031 |
| TATATTGACC | 1.04 ± 0.03 |
| TATATTGGAT | 0.985 ± 0.025 |
| TATATTGGGC | 0.968 ± 0.049 |
| TATATTTGGG | 0.998 ± 0.034 |
| TATATTTGGT | 0.996 ± 0.039 |
| TATATTTTTA | 0.9819 ± 0.0079 |
| TATCAAAGGC | 1.014 ± 0.0082 |
| TATCACCATA | 1.04 ± 0.079 |
| TATCACCGGC | 1.09 ± 0.031 |
| TATCACGGTA | 1.176 ± 0.011 |
| TATCAGAGGG | 1.02 ± 0.023 |
| TATCAGGGCT | 0.999 ± 0.057 |
| TATCAGGGGA | 1 ± 0.075 |
| TATCAGGGGT | 1.08 ± 0.073 |
| TATCATAAGT | 1.016 ± 0.0077 |
| TATCATCTTT | 1.01 ± 0.054 |
| TATCATTAGA | 1.01 ± 0.014 |
| TATCATTCGG | 1.01 ± 0.043 |
| TATCCTATTA | 1.003 ± 0.0036 |
| TATCCTGGAC | 1.05 ± 0.045 |
| TATCGAAGTT | 1.013 ± 0.0018 |
| TATCGACAAT | 1.37 ± 0.47 |

| Sequence | switch fluorescence ratio |
| --- | --- |
| TATCGAGTGG | 0.979 ± 0.058 |
| TATCGCGGTG | 1.005 ± 0.005 |
| TATCGCTCAT | 0.9765 ± 0.0073 |
| TATCGGATTC | 1.02 ± 0.02 |
| TATCGGGTGT | 1.11 ± 0.092 |
| TATCGGTTCG | 0.9992 ± 0.0076 |
| TATCGTAGTG | 0.98 ± 0.038 |
| TATCGTCGGA | 0.9823 ± 0.0035 |
| TATCGTCTGG | 0.981 ± 0.015 |
| TATCGTTCTC | 0.989 ± 0.011 |
| TATCGTTGGA | 1.03 ± 0.018 |
| TATCTCTTTT | 1.01 ± 0.041 |
| TATCTGGGCC | 1.03 ± 0.011 |
| TATCTGTGCT | 0.994 ± 0.019 |
| TATCTTACCA | 0.988 ± 0.032 |
| TATCTTGGGC | 0.996 ± 0.083 |
| TATGAAAGGA | 1.011 ± 0.0047 |
| TATGAAGAGT | 1.01 ± 0.017 |
| TATGAATTGT | 1.014 ± 0.01 |
| TATGACAGGA | 0.995 ± 0.011 |
| TATGAGAGAG | 1.03 ± 0.02 |
| TATGAGATCG | 1.03 ± 0.069 |
| TATGAGGATG | 1.01 ± 0.031 |
| TATGAGGGGA | 1.02 ± 0.032 |
| TATGAGTGAC | 1.02 ± 0.016 |
| TATGAGTGGG | 0.976 ± 0.018 |

| Sequence | switch fluorescence ratio |
| --- | --- |
| TATGATATGC | 1.032 ± 0.0011 |
| TATGATGCTC | 0.998 ± 0.043 |
| TATGATTGGC | 0.972 ± 0.061 |
| TATGCAACTT | 0.993 ± 0.015 |
| TATGCAGTA | 1.3 ± 0.038 |
| TATGCCCAGC | 1 ± 0.029 |
| TATGCCTTTT | 1.008 ± 0.0042 |
| TATGCGGGCG | 0.939 ± 0.072 |
| TATGCTAACT | 1 ± 0.051 |
| TATGCTTGA | 0.986 ± 0.036 |
| TATGCTTGGT | 1.015 ± 0.003 |
| TATGGAAGAG | 0.977 ± 0.054 |
| TATGGAAGCC | 0.982 ± 0.034 |
| TATGGAATGC | 1.35 ± 0.076 |
| TATGGACTAG | 1.01 ± 0.025 |
| TATGGAGAAC | 1.01 ± 0.035 |
| TATGGAGGGG | 0.991 ± 0.032 |
| TATGGCAACC | 1.03 ± 0.061 |
| TATGGCAAGG | 1.03 ± 0.051 |
| TATGGCCAGC | 0.994 ± 0.047 |
| TATGGCGGGG | 1.02 ± 0.03 |
| TATGGGGGGG | 0.994 ± 0.038 |
| TATGGGGGTT | 0.987 ± 0.022 |
| TATGGGTCTC | 0.973 ± 0.049 |
| TATGGGTGCC | 0.9771 ± 0.0042 |
| TATGGGTTCT | 1 ± 0.031 |

| Sequence | switch fluorescence ratio |
| --- | --- |
| TATGGTAGGC | 0.9857 ± 0.0042 |
| TATGGTCGC | 1.03 ± 0.026 |
| TATGGTGC | 1.06 ± 0.015 |
| TATGTAAACA | 1 ± 0.025 |
| TATGTATTTT | 1.02 ± 0.055 |
| TATGTCAGAG | 1.01 ± 0.039 |
| TATGTCGGCC | 0.975 ± 0.069 |
| TATGTGAACA | 0.991 ± 0.025 |
| TATGTGACGA | 1 ± 0.026 |
| TATGTGCTTG | 0.991 ± 0.021 |
| TATGTGGAGT | 0.9924 ± 0.0089 |
| TATGTGGCGG | 0.974 ± 0.022 |
| TATGTGGGGA | 1.02 ± 0.027 |
| TATGTGGGGG | 1 ± 0.016 |
| TATGTGTTTC | 1.18 ± 0.25 |
| TATGTTACCT | 1.22 ± 0.05 |
| TATGTTGAGG | 1 ± 0.035 |
| TATGTTTATC | 0.975 ± 0.055 |
| TATTAAAATT | 1.008 ± 0.0077 |
| TATTAAACGA | 1.019 ± 0.0063 |
| TATTAAAGAC | 1.04 ± 0.1 |
| TATTAAATTC | 0.984 ± 0.039 |
| TATTAATAGT | 1.01 ± 0.024 |
| TATTACAAGT | 1.01 ± 0.015 |
| TATTACCGTT | 1.006 ± 0.0076 |
| TATTACTCAG | 1.03 ± 0.025 |

| Sequence | switch fluorescence ratio |
| --- | --- |
| TATTAGGGAC | 0.994 ± 0.032 |
| TATTAGGGCA | 0.9717 ± 0.0097 |
| TATTAGGGTC | 1.02 ± 0.02 |
| TATTAGGTGT | 1.04 ± 0.04 |
| TATTAGGTTT | 0.991 ± 0.018 |
| TATTAGTATG | 0.991 ± 0.047 |
| TATTATACCT | 1.29 ± 0.053 |
| TATTATTTGG | 1 ± 0.034 |
| TATTCAATGG | 1.02 ± 0.074 |
| TATTCAGAAA | 1.02 ± 0.054 |
| TATTCAGAGG | 0.974 ± 0.02 |
| TATTCAGGCA | 1.01 ± 0.041 |
| TATTCGCTTT | 1.33 ± 0.48 |
| TATTCTGGAT | 0.993 ± 0.026 |
| TATTCTGGGA | 0.9918 ± 0.0078 |
| TATTGAAGGT | 1.026 ± 0.0075 |
| TATTGAGACT | 0.989 ± 0.004 |
| TATTGAGAGC | 1.01 ± 0.064 |
| TATTGCTACT | 1.0114 ± 6.4e-05 |
| TATTGGAACG | 0.99979 ± 0.0003 |
| TATTGGCAGA | 1.008 ± 0.01 |
| TATTGGCGCT | 0.984 ± 0.018 |
| TATTGGGCGG | 1.01 ± 0.045 |
| TATTGGGCTA | 0.993 ± 0.044 |
| TATTGGGTTT | 0.996 ± 0.022 |
| TATTGGTAAA | 0.997 ± 0.036 |

| Sequence | switch fluorescence ratio |
| --- | --- |
| TATTGGTAGC | 0.984 ± 0.025 |
| TATTGGTATG | 1 ± 0.017 |
| TATTGGTCGG | 0.993 ± 0.036 |
| TATTGGTTTT | 1 ± 0.011 |
| TATTGTGAGT | 0.996 ± 0.057 |
| TATTGTGGGG | 1 ± 0.044 |
| TATTGTGTTC | 0.9965 ± 0.0035 |
| TATTGTTAGG | 1.01 ± 0.027 |
| TATTTAAAGG | 0.986 ± 0.02 |
| TATTTAACAC | 1.1 ± 0.12 |
| TATTTAATAG | 1.004 ± 0.0028 |
| TATTTAGGGC | 1.04 ± 0.052 |
| TATTTATAAG | 0.96 ± 0.015 |
| TATTTATGCG | 1.021 ± 0.0091 |
| TATTTATTGG | 0.999 ± 0.012 |
| TATTTATTTT | 1.01 ± 0.03 |
| TATTTCATGT | 1.02 ± 0.044 |
| TATTTCATTC | 1.03 ± 0.041 |
| TATTTCGGGT | 1.01 ± 0.068 |
| TATTTCTGCT | 1.04 ± 0.033 |
| TATTTCTGTA | 1.03 ± 0.019 |
| TATTTCTTTG | 0.979 ± 0.055 |
| TATTTGAAGT | 0.9885 ± 0.0028 |

— the supplement of paper PMC10126150
